From patent publication US20120073987A1, “ELECT[…] AND APPARATUS OF IDENTIFYING THE PRESENCE OF A TARGET” (priority 2009, published 2012)

Key:
[1] = molecular target: T1, HIV-1 reverse transcriptase (Human immunodeficiency virus type 1 group M subtype B, UniProt P04585); experiment: Cyclic voltammetry detection of HIV-1 RT binding on peptide-RT-modified Thc-Fc Au microelectrodes
T1 construct: HIV-1 reverse transcriptase (200 U, T3610Y, RT) was purchased from GE Healthcare; purchased GE Healthcare T3610Y
Method: (§1) Au microelectrodes were incubated in 1 mM ethanolic solution of Thc-Fc overnight (˜15 h). The electrodes were rinsed with ethanol and Millipore water (18.2 MΩ.cm). This layer was terminated by the amino-reactive carboxyl moieties that allowed the attachment of the peptides. The carboxyl groups were activated with 2 mM EDC and 5 mM NHS in 50 mM phosphate buffer solution (pH 7.4) for 2 h. The N-terminus of the peptides was attached to the activated carboxyl groups of Thc-Fc to give the final electrode interface. The peptides (1 mM) were incubated with the activated electrodes in 50 mM phosphate buffer solution (pH 7.4) for 2 h on a block-shaker at room temperature. Thus, the peptides were conjugated with the Fc compounds on the surface. The remaining active-esters were quenched by incubating the peptide-modified electrodes in 100 mM ethanolamine solution for 1 h on a block-shaker at room temperature. The peptide-modified electrodes were then incubated in 1 mM hexanethiol solution for 5 min to produce a diluted film and to back-fill the empty spots on the electrode surface. Finally, the electrodes were rinsed with ethanol and Millipore water to give the peptide-modified sensor surfaces. […]

[2] = molecular target: T2, HIV-1 integrase (Human immunodeficiency virus type 1 group M subtype B, UniProt P04585); experiment: Cyclic voltammetry detection of HIV-1 IN binding on peptide-IN-modified Thc-Fc Au microelectrodes
T2 construct: HIV integrase (100 μg, HIV-122, IN) was purchased from ProspecBio (USA); purchased ProspecBio HIV-122
Method: as §1

[3] = 100 nM protein solution, n=3 electrodes, FIG. 7

VEAIIRILQQLLFIH [peptide-RT, purchased peptide ligand for HIV-1 RT, immobilised on ferrocene-modified gold electrode]
electrochemical response to exposure to HIV-1 RT (selectivity) [1, 3]: responded to the exposure of HIV-1 RT | detection limit for HIV-1 RT ([1]; estimated from 3(Sb/m), CV at 100 mV s^-1 in 2 M NaClO4, 1 h incubation in RT assay buffer pH 7.2): 20 nM

YQLLIRMIYKNI [peptide-IN, purchased peptide ligand for HIV-1 IN, immobilised on ferrocene-modified gold electrode]
electrochemical response to exposure to HIV-1 IN (selectivity) [2, 3]: responded to the exposure of HIV-1 IN | detection limit for HIV-1 IN ([2]; CV at 100 mV s^-1 in 2 M NaClO4, IN assay buffer pH 7.5): 20 nM
